Source: article PMC7858651, “Modulation of Increased mGluR1 Signaling by RGS8 Protects Purkinje Cells From Dendritic Reduction and Could Be a Common Mechanism in Diverse Forms of Spinocerebellar Ataxia” (Frontiers in Cell and Developmental Biology, 2020)

What was measured:
wild-type PKCγ-tGFP = biological target: T1, wild-type PKCγ-tGFP (UniProt P05129 1-697); experiment: co-IP; HEK293T cells expressing mGluR1, transfected with PKCγ-tGFP, PKCγ(S361G)-tGFP or tGFP alone; tGFP trap agarose beads (Chromotek); IPs blotted with anti-mGluR1 and anti-tGFP; amounts quantified and normalised to wild-type PKCγ-tGFP; conditions: partners not purified
T1 construct: Protein Kinase C gamma (PKCγ), wild type; plasmid pCMV-PKCγ-tGFP, a gift (Shimobayashi and Kapfhammer, 2017); also called WT PKCγ; source: HEK293T, transfected (pCMV-PKCγ-tGFP), in lysate

PKCγ(S361G)-tGFP = biological target: T2, PKCγ(S361G)-tGFP (human, UniProt P05129 1-697, S361G); experiment: as above; conditions: partners not purified
T2 construct: Protein Kinase C gamma (PKCγ) with the SCA14-associated human mutation S361G; plasmid pCMV-PKCγ(S361G)-tGFP, a gift (Shimobayashi and Kapfhammer, 2017); also called mutated PKCγ(S361G); mutant PKCγ(S361G); source: HEK293T, transfected (pCMV-PKCγ(S361G)-tGFP), in lysate

B1: metabotropic glutamate receptor 1 (mGluR1) (receptor, UniProt P97772 21-1199, looked up)
chain: RMPDRKVLLAGASSQRSVARMDGDVIIGALFSVHHQPPAEKVPERKCGEIREQYGIQRVEAMFHTLDKINADPVLLPNITLGSEIRDSCWHSSVALEQSIEFIRDSLISIRDEKDGLNRCLPDGQTLPPGRTKKPIAGVIGPGSSSVAIQVQNLLQLFDIPQIAYSATSIDLSDKTLYKYFLRVVPSDTLQARAMLDIVKRYNWTYVSAVHTEGNYGESGMDAFKELAAQEGLCIAHSDKIYSNAGEKSFDRLLRKLRERLPKARVVVCFCEGMTVRGLLSAMRRLGVVGEFSLIGSDGWADRDEVIEGYEVEANGGITIKLQSPEVRSFDDYFLKLRLDTNTRNPWFPEFWQHRFQCRLPGHLLENPNFKKVCTGNESLEENYVQDSKMGFVINAIYAMAHGLQNMHHALCPGYVGLCDAMKPIDGRKLLDFLIKSSFVGVSGEEVWFDEKGDAPGRYDIMNLQYTEANRYDYVHVGTWHEGVLNIDDYKIQMNKSGMVRSVCSEPCLKGQIKVIRKGEVSCCWICTACKENEFVQDEFTCRACDLGWWPNAELTGCEPITIRYLEWSDIESIIAIAFSCLGILVTLFVTLIFVLYRDTPVVKSSSRELCYIILAGIFLGYVCPFTLIAKPTTTSCYLQRLLVGLSSAMCYSALVTKTNRIARILAGSKKKICTRKPRFMSAWAQVIIASILISVQLTLVVTLIIMEPPMPILSYPSIKEVYLICNTSNLGVVAPVGYNGLLIMSCTYYAFKTRNVPANFNEAKYIAFTMYTTCIIWLAFVPIYFGSNYKIITTCFAVSLSVTVALGCMFTPKMYIIIAKPERNVRSAFTTSDVVRMHVGDGKLPCRSNTFLNIFRRKKPGAGNANSNGKSVSWSEPGGRQAPKGQHVWQRLSVHVKTNETACNQTAVIKPLTKSYQGSGKSLTFSDASTKTLYNVEEEDNTPSTHFSPPSSPSMVVHRRGPPVATTPPLPPHLSAEETPLFLADSVIPKGLPPPLPQQQQQPPPQPPPQQPKSLMDQLQGVVTNFGSGIPDFHAVLAGPGTPGNGLRSLYPPPPPPQHLQMLPLQLSTFREEPISPPGEDDDDDSSERFKLLQEFVYEREGNTEEDDLEEEEDLPAASKLTPEDSPALTPPSPFRDSVASGSSVPSSPVSESVLCTPPNVTYASVILRDYKQSSSTL
notes: metabotropic glutamate receptor 1 (mGluR1), expressed from the vector pCMV-mGluR1 bought from Origene; source: HEK293T, transfected (pCMV-mGluR1, Origene), in lysate
relative amount bound, normalised to wild-type PKCγ-tGFP (wild-type PKCγ-tGFP): 1 relative to wild-type PKCγ-tGFP | relative amount bound, normalised to wild-type PKCγ-tGFP (PKCγ(S361G)-tGFP): 1.26 relative to wild-type PKCγ-tGFP
